Experimental findings from the supplement of paper PMC5998384 are described below.

Data set [1] concerns HeLa Kyoto. The experiment in a line: thermal stability score vs G1/S (z-score of summed log2 fold changes over temperatures); higher = more thermally stable than in G1/S.
Data set [2] relates to HeLa Kyoto. The data set is described as follows: melting temperature (median over replicates), in situ; higher = more thermally stable.
Data set [3] relates to HeLa Kyoto. The experiment in a line: solubility in G1/S (NP-40 vs SDS abundance) (log2 ratio); higher = more soluble. To be noted: cell cycle stage: G1/S.
In data set [4] the test system is HeLa Kyoto. The experiment in a line: solubility change mitosis vs G1/S (difference of NP-40 vs SDS log2 ratios) (log2 ratio difference); higher = more soluble in mitosis.
Setting [5] is: cell cycle stage: early G1 (4.5 h after nocodazole release).
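Throughout, for melting temperature (median over replicates), in situ: HeLa Kyoto cells synchronized by double thymidine or nocodazole block, proteins quantified by TMT10plex mass spectrometry, three independent biological replicates.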
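Throughout, for solubility change mitosis vs G1/S (difference of NP-40 vs SDS log2 ratios): synchronized HeLa Kyoto cells (double thymidine block for G1/S, nocodazole release for mitosis), protein amounts in NP-40 versus SDS lysates quantified by mass spectrometry, three biological replicates.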
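Throughout, for solubility in G1/S (NP-40 vs SDS abundance): HeLa Kyoto cells arrested at G1/S by double thymidine block, proteins quantified by TMT10plex mass spectrometry in mild NP-40 versus SDS extracts, three biological replicates.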
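Throughout, for thermal stability score vs G1/S (z-score of summed log2 fold changes over temperatures): synchronized HeLa Kyoto cells, proteins quantified by TMT10plex mass spectrometry, three biological replicates, mitosis taken 0.5 h after nocodazole release, G1/S directly after double thymidine block.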

Take “MASGAGGVGGGGGGKIRTRRCHQGPIKPYQQGRQQHQGILSRVTESVKNIVPGWLQRYFNKNEDVCSCSTDTSEVPRWPENKEDHLVYADEESSNITDGRITPEPAVSNTEEPSTTSTASNYPDVLTRPSLHRSHLNFSMLESPALHCQPSTSSAFPIGSSGFSLVKEIKDSTSQHDDDNISTTSGFSSRASDKDITVSKNTSLPPLWSPEAERSHSLSQHTATSSKKPAFNLSAFGTLSPSLGNSSILKTSQLGDSPFYPGKTTYGGAAAAVRQSKLRNTPYQAPVRRQMKAKQLSAQSYGVTSSTARRILQSLEKMSSPLADAKRIPSIVSSPLNSPLDRSGIDITDFQAKREKVDSQYPPVQRLMTPKPVSIATNRSVYFKPSLTPSGEFRKTNQRIDNKCSTGYEKNMTPGQNREQRESGFSYPNFSLPAANGLSSGVGGGGGKMRRERTRFVASKPLEEEEMEVPVLPKISLPITSSSLPTFNFSSPEITTSSPSPINSSQALTNKVQMTSPSSTGSPMFKFSSPIVKSTEANVLPPSSIGFTFSVPVAKTAELSGSSSTLEPIISSSAHHVTTVNSTNCKKTPPEDCEGPFRPAEILKEGSVLDILKSPGFASPKIDSVAAQPTATSPVVYTRPAISSFSSSGIGFGESLKAGSSWQCDTCLLQNKVTDNKCIACQAAKLSPRDTAKQTGIETPNKSGKTTLSASGTGFGDKFKPVIGTWDCDTCLVQNKPEAIKCVACETPKPGTCVKRALTLTVVSESAETMTASSSSCTVTTGTLGFGDKFKRPIGSWECSVCCVSNNAEDNKCVSCMSEKPGSSVPASSSSTVPVSLPSGGSLGLEKFKKPEGSWDCELCLVQNKADSTKCLACESAKPGTKSGFKGFDTSSSSSNSAASSSFKFGVSSSSSGPSQTLTSTGNFKFGDQGGFKIGVSSDSGSINPMSEGFKFSKPIGDFKFGVSSESKPEEVKKDSKNDNFKFGLSSGLSNPVSLTPFQFGVSNLGQEEKKEELPKSSSAGFSFGTGVINSTPAPANTIVTSENKSSFNLGTIETKSASVAPFTCKTSEAKKEEMPATKGGFSFGNVEPASLPSASVFVLGRTEEKQQEPVTSTSLVFGKKADNEEPKCQPVFSFGNSEQTKDENSSKSTFSFSMTKPSEKESEQPAKATFAFGAQTSTTADQGAAKPVFSFLNNSSSSSSTPATSAGGGIFGSSTSSSNPPVATFVFGQSSNPVSSSAFGNTAESSTSQSLLFSQDSKLATTSSTGTAVTPFVFGPGASSNNTTTSGFGFGATTTSSSAGSSFVFGTGPSAPSASPAFGANQTPTFGQSQGASQPNPPGFGSISSSTALFPTGSQPAPPTFGTVSSSSQPPVFGQQPSQSAFGSGTTPNSSSAFQFGSSTTNFNFTNNSPSGVFTFGANSSTPAASAQPSGSGGFPFNQSPAAFTVGSNGKNVFSSSGTSFSGRKIKTAVRRRK [NUP153]”: the thermal stability score in the data set with HeLa Kyoto [1] (setting [5]) is -5.41; with HeLa Kyoto [1] (cell cycle stage: mitosis) it was -3.58. Moreover, the results for the melting temperature in the data set with HeLa Kyoto [2] (cell cycle stage: G1/S) and in the data set on HeLa Kyoto [2] (cell cycle stage: mitosis) were 52.8 °C and 52.6 °C, respectively. In addition, in the data set with HeLa Kyoto [3], the “solubility in G1/S (log2)” value is -0.682. Further, the “solubility change mitosis (log2)” value with HeLa Kyoto [4] stood at 0.507.
On to “MAELQMLLEEEIPSGKRALIESYQNLTRVADYCENNYIQATDKRKALEETKAYTTQSLASVAYQINALANNVLQLLDIQASQLRRMESSINHISQTVDIHKEKVARREIGILTTNKNTSRTHKIIAPANMERPVRYIRKPIDYTVLDDVGHGVKWLKAKHGNNQPARTGTLSRTNPPTQKPPSPPMSGRGTLGRNTPYKTLEPVKPPTVPNDYMTSPARLGSQHSPGRTASLNQRPRTHSGSSGGSGSRENSGSSSIGIPIAVPTPSPPTIGPENISVPPPSGAPPAPPLAPLLPVSTVIAAPGSAPGSQYGTMTRQISRHNSTTSSTSSGGYRRTPSVTAQFSAQPHVNGGPLYSQNSISIAPPPPPMPQLTPQIPLTGFVARVQENIADSPTPPPPPPPDDIPMFDDSPPPPPPPPVDYEDEEAAVVQYNDPYADGDPAWAPKNYIEKVVAIYDYTKDKDDELSFMEGAIIYVIKKNDDGWYEGVCNRVTGLFPGNYVESIMHYTD [ABI1]”, for which the thermal stability score in the data set with HeLa Kyoto [1] (setting [5]) is -0.724; in the data set on HeLa Kyoto [1] (cell cycle stage: mitosis), -0.695. Also, the melting temperature in the data set with HeLa Kyoto [2] (cell cycle stage: G1/S) turned out to be 51.1 °C; with HeLa Kyoto [2] (cell cycle stage: mitosis) it was 51.4 °C. Moreover, the “solubility in G1/S (log2)” value in the data set with HeLa Kyoto [3] is 0.313. For the same sequence, the “solubility change mitosis (log2)” value in the data set on HeLa Kyoto [4] was -0.104.
Take “MEEGHGLDLTYITERIIAVSFPAGCSEESYLHNLQEVTRMLKSKHGDNYLVLNLSEKRYDLTKLNPKIMDVGWPELHAPPLDKMCTICKAQESWLNSNLQHVVVIHCRGGKGRIGVVISSYMHFTNVSASADQALDRFAMKKFYDDKVSALMQPSQKRYVQFLSGLLSGSVKMNASPLFLHFVILHGTPNFDTGGVCRPFLKLYQAMQPVYTSGIYNVGPENPSRICIVIEPAQLLKGDVMVKCYHKKYRSATRDVIFRLQFHTGAVQGYGLVFGKEDLDNASKDDRFPDYGKVELVFSATPEKIQGSEHLYNDHGVIVDYNTTDPLIRWDSYENLSADGEVLHTQGPVDGSLYAKVRKKSSSDPGIPGGPQAIPATNSPDHSDHTLSVSSDSGHSTASARTDKTEERLAPGTRRGLSAQEKAELDQLLSGFGLEDPGSSLKEMTDARSKYSGTRHVVPAQVHVNGDAALKDRETDILDDEMPHHDLHSVDSLGTLSSSEGPQSAHLGPFTCHKSSQNSLLSDGFGSNVGEDPQGTLVPDLGLGMDGPYERERTFGSREPKQPQPLLRKPSVSAQMQAYGQSSYSTQTWVRQQQMVVAHQYSFAPDGEARLVSRCPADNPGLVQAQPRVPLTPTRGTSSRVAVQRGVGSGPHPPDTQQPSPSKAFKPRFPGDQVVNGAGPELSTGPSPGSPTLDIDQSIEQLNRLILELDPTFEPIPTHMNALGSQANGSVSPDSVGGGLRASSRLPDTGEGPSRATGRQGSSAEQPLGGRLRKLSLGQYDNDAGGQLPFSKCAWGKAGVDYAPNLPPFPSPADVKETMTPGYPQDLDIIDGRILSSKESMCSTPAFPVSPETPYVKTALRHPPFSPPEPPLSSPASQHKGGREPRSCPETLTHAVGMSESPIGPKSTMLRADASSTPSFQQAFASSCTISSNGPGQRRESSSSAERQWVESSPKPMVSLLGSGRPTGSPLSAEFSGTRKDSPVLSCFPPSELQAPFHSHELSLAEPPDSLAPPSSQAFLGFGTAPVGSGLPPEEDLGALLANSHGASPTPSIPLTATGAADNGFLSHNFLTVAPGHSSHHSPGLQGQGVTLPGQPPLPEKKRASEGDRSLGSVSPSSSGFSSPHSGSTISIPFPNVLPDFSKASEAASPLPDSPGDKLVIVKFVQDTSKFWYKADISREQAIAMLKDKEPGSFIVRDSHSFRGAYGLAMKVATPPPSVLQLNKKAGDLANELVRHFLIECTPKGVRLKGCSNEPYFGSLTALVCQHSITPLALPCKLLIPERDPLEEIAESSPQTAANSAAELLKQGAACNVWYLNSVEMESLTGHQAIQKALSITLVQEPPPVSTVVHFKVSAQGITLTDNQRKLFFRRHYPVNSVIFCALDPQDRKWIKDGPSSKVFGFVARKQGSATDNVCHLFAEHDPEQPASAIVNFVSKVMIGSPKKV [TNS3]”: the thermal stability score was determined as 1.68 in the data set with HeLa Kyoto [1] (setting [5]) and 3.85 in the data set with HeLa Kyoto [1] (cell cycle stage: mitosis). For the same sequence, the results for the melting temperature with HeLa Kyoto [2] (cell cycle stage: G1/S) and with HeLa Kyoto [2] (cell cycle stage: mitosis) were 48 °C and 49.8 °C, respectively. Further, the “solubility in G1/S (log2)” value with HeLa Kyoto [3] worked out at 0.127. Moreover, in the data set on HeLa Kyoto [4], the “solubility change mitosis (log2)” value is -0.126.
